Data as given in publication PMC9891525 (PLOS Pathogens, 2023).
Residue numbers refer to the chain shown, from its start.

B1: REGN10987 scFv combinatorial variant d1 displayed on HEK 293T cells (scFv, V domains shown)
VH: QVQLVESGGGVVQPGRSLRLSCAASGFTFSNYAMYWVRQAPGKGLEWVAVISYTGSNKYYADSVKGRFTISRDNSKNTLYLQMNSLRTEDTAVYYCASGSDYGDYLLVYWGQGTLVTVSS
VL: QSALTQPASVSGSPGQSITISCTGTSSDVGGYNYVSWYQQHPGKAPKLMIYDVSKRPSGVSNRFSGSKSGNTASLTISGLQSEDEADYYCNSLTSIYTWVFGGGTKLTVL
B2: REGN10987 scFv combinatorial variant d2 displayed on HEK 293T cells (scFv, V domains shown)
VH: B1 VH with T54D, N57H
VL: B1 VL
B3: REGN10987 scFv combinatorial variant d6 displayed on HEK 293T cells (scFv, V domains shown)
VH: B1 VH with T54I
VL: B1 VL
B4: REGN10987 scFv combinatorial variant d8 displayed on HEK 293T cells (scFv, V domains shown)
VH: B1 VH with T54L
VL: B1 VL
B5: REGN10987 scFv combinatorial variant A2 displayed on HEK 293T cells (scFv, V domains shown)
VH: B1 VH with T54D, N57T, L106N
VL: B1 VL with Y97S
B6: REGN10987 scFv combinatorial variant A1 displayed on HEK 293T cells (scFv, V domains shown)
VH: B1 VH with T54D, N57F, L106N
VL: B1 VL with Y97S
B7: REGN10987 scFv combinatorial variant d3 displayed on HEK 293T cells (scFv, V domains shown)
VH: B1 VH with N57H
VL: B1 VL

Target: biotinylated recombinant SARS-CoV-2 wild type spike RBD (SARS-CoV-2, wild type, UniProt P0DTC2, biotin (biotinylated; detected with streptavidin-FITC))
Experiment: flow cytometry on cells
Conditions: one partner purified

Binder | binding result
B1 | binds
B2 | binds
B3 | binds
B4 | binds
B5 | binds
B6 | binds
B7 | binds
